One block for each molecule: values may come before it.
Assays:
[1] = target: His6-tagged mSecA1 (Arabidopsis) (UniProt Q9SYI0)
[2] = substrate: Nc1ncnc2c1ncn2[C@@H]1O[C@H](COP(=O)(O)OP(=O)(O)OP(=O)(O)O)[C@@H](O)[C@H]1O; experiment: ATPase, NADH-coupled (pyruvate kinase / lactate dehydrogenase); radicicol-sensitive activity; type: biochemical, Arabidopsis thaliana; settings: pH 7.5, 5 mM MgCl2, 500 mM KCl, HSP90C alone, called ATP binding affinity

Chain of His6-tagged mSecA1 (Arabidopsis) (Q9SYI0 73-1022): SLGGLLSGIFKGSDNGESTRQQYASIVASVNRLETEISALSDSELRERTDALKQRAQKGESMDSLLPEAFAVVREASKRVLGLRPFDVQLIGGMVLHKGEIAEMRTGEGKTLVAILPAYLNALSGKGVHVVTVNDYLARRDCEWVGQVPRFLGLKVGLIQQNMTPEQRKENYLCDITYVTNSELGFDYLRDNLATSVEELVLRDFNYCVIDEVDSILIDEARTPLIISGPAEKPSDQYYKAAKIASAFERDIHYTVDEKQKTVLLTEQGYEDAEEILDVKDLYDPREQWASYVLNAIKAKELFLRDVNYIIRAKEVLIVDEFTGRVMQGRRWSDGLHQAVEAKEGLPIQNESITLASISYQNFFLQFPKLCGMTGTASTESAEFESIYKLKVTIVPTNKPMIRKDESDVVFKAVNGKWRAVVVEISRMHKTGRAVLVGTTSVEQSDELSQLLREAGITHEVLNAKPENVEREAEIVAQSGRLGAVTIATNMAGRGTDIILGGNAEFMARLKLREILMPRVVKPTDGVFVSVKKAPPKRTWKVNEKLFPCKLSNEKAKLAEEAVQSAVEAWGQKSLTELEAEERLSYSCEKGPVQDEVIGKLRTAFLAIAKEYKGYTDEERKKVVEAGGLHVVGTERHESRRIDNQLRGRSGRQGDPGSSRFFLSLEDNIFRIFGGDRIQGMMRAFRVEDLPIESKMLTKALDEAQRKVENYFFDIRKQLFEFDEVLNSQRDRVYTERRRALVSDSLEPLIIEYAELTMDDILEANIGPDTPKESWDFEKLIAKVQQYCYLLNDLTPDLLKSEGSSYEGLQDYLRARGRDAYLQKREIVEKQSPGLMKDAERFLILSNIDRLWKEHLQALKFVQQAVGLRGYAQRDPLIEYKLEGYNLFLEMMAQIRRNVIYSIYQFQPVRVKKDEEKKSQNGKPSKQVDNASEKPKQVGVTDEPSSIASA

combined ATP turnover rate (kcat) of the equimolar mixture SecA1 + HSP90C (1.41 μM each), NADH-coupled assay at 5 mM ATP; sum of the two proteins' own average rates 2.93 min^−1 [1]: 0.0581 s⁻¹
rise of the ATP turnover rate of SecA1 + HSP90C + PsbO1 (equimolar) relative to the SecA1 + HSP90C mixture, NADH-coupled assay [1]: 16%
Molecule: His6-tagged HSP90C (from UniProt Q9SIF2 61-780) (natural protein)

B1: HSP90C (Arabidopsis thaliana) (protein)
chain: CDAAVAEKETTEEGSGEKFEYQAEVSRLLDLIVHSLYSHKEVFLRELVSNASDALDKLRFLSVTEPSLLGDGGDLEIRIKPDPDNGTITITDTGIGMTKEELIDCLGTIAQSGTSKFLKALKENKDLGADNGLIGQFGVGFYSAFLVAEKVVVSTKSPKSDKQYVWESVADSSSYLIREETDPDNILRRGTQITLYLREDDKYEFAESTRIKNLVKNYSQFVGFPIYTWQEKSRTIEVEEDEPVKEGEEGEPKKKKTTKTEKYWDWELANETKPLWMRNSKEVEKGEYNEFYKKAFNEFLDPLAHTHFTTEGEVEFRSILYIPGMGPLNNEDVTNPKTKNIRLYVKRVFISDDFDGELFPRYLSFVKGVVDSDDLPLNVSREILQESRIVRIMRKRLIRKTFDMIQEISESENKEDYKKFWENFGRFLKLGCIEDTGNHKRITPLLRFFSSKNEEELTSLDDYIENMGENQKAIYYLATDSLKSAKSAPFLEKLIQKDIEVLYLVEPIDEVAIQNLQTYKEKKFVDISKEDLELGDEDEVKDREAKQEFNLLCDWIKQQLGDKVAKVQVSNRLSSSPCVLVSGKFGWSANMERLMKAQALGDTSSLEFMRGRRILEINPDHPIIKDLNAACKNAPESTEATRVVDLLYDTAIISSGFTPDSPAELGNKIYEMMAMAVGGRWGRVEEEEESSTVNEGDDKSGETEVVEPSEVRAESDPWQD
notes: His6-tagged HSP90C (pProEX HTb), E. coli BL21(DE3)-pRIL, Ni-NTA and Superdex 200
Km [2]: 4.01 mM
